Data on five molecules can be found in patent publication US20260250404A1 (Genmab, published 2026).

A word on the EC50 (read off the curve): it is the concentration giving half of the maximal effect.

In assay [1] the target is recombinant His-tagged human FcγRIa (Sino Biological 10256-H08S-B) (human, UniProt P12314 16-288). Put plainly: SPR (Biacore), His-tagged FcγR captured on anti-His chip, antibody injected, resonance units after background subtraction.
Assay [2] addresses T1, recombinant His-tagged human FcγRIIa, 167-His [H] / H131 variant (human, UniProt P12318 34-218, limits assumed).
T1 construct: catalogue numbers differ; also called FcγRIIa-H; FcγRIIa-H131
T1 sequence (looked up): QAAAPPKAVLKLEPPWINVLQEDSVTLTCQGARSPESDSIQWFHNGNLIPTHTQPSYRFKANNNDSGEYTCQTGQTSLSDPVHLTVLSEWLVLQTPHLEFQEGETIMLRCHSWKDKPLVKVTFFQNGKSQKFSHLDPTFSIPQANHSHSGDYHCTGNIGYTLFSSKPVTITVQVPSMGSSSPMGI
The assay is described as above.

Assay [3] deals with T2, recombinant His-tagged human FcγRIIb (human, UniProt P31994 43-217, limits assumed).
T2 sequence (looked up): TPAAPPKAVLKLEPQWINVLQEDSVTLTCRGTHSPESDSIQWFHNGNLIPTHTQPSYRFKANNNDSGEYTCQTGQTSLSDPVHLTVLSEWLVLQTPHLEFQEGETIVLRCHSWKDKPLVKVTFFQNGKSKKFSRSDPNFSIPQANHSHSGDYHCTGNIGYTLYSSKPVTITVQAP
The description is as above.

The target in assay [4] is T3, recombinant His-tagged human FcγRIIIa, 176-Phe [F] / F158 variant (human, UniProt P08637 17-208).
T3 construct: also called FcγRIIIa-F; FcγRIIIa-F158
T3 sequence (P08637 17-208 limits assumed, change not shown): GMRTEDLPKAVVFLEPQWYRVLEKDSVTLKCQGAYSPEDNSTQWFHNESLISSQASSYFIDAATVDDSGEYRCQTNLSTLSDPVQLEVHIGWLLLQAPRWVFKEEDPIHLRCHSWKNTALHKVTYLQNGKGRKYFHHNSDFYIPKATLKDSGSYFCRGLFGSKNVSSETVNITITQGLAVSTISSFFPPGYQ
Described as above.

For assay [5], the target named is T4, recombinant His-tagged human FcγRIIIa, 176-Val [V] / V158 variant (human, UniProt P08637 17-208).
T4 construct: also called FcγRIIIa-V; FcγRIIIa-V158
T4 sequence (P08637 other isoform, or with tags, fused parts or gaps mutant limits assumed): as the sequence (P08637 17-208 limits assumed, change not shown) above, with F160V counted along it
The assay is described as above.

Assay [6] addresses T5, recombinant His-tagged human FcγRIIa, 167-Arg [R] / R131 variant (human, UniProt P12318 34-218, limits assumed).
T5 construct: catalogue numbers differ; also called FcγRIIa-R; FcγRIIa-R131
T5 sequence (looked up): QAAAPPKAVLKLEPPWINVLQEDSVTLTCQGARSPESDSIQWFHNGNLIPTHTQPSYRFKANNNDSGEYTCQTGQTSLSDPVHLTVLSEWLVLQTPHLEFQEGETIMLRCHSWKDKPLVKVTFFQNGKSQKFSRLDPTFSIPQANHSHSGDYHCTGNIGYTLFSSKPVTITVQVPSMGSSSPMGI
Described as above.

The target in assay [7] is T6, human FcγRIa on the cell surface (transfected CHO-S cells, M0/M1 macrophages, hMDM, FcγRI effector reporter … (human, UniProt P12314 16-374)).
T6 construct: whole, on cells; also called CD64
T6 sequence (P12314 16-374): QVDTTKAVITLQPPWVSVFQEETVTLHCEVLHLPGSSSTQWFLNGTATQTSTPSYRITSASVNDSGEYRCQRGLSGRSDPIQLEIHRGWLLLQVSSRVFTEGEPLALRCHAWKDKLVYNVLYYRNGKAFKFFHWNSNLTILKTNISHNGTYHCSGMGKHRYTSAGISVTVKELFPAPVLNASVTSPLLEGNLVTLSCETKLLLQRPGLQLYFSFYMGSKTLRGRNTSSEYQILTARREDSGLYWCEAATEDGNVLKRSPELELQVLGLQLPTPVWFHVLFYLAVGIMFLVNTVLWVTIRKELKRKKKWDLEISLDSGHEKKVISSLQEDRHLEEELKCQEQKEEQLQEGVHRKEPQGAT
Description: flow cytometry on human monocyte-derived M0 macrophages, PE-labeled goat anti-human IgG, GeoMean-PE. A general note: Flow cytometry measures light scatter and fluorescence of single cells or particles in a stream.

The target in assay [8] is T7, human CD27 on the cell surface (T cells, transfected HEK293F cells, Daudi cells, NFκB-luc2/CD27 Jurkat cells) (human, UniProt P26842 20-240).
T7 construct: Full length human CD27, endogenous or transfected; also called TNFRSF7
Put plainly: flow cytometry on CD4+ T cells in human healthy donor PBMC, FITC goat anti-human IgG F(ab')2, median FITC.

Assay [9] has as its target T8, mouse PD-1 on transfected CHO-S cells (mouse, UniProt Q02242 25-288).
T8 construct: whole, on cells
T8 sequence (looked up): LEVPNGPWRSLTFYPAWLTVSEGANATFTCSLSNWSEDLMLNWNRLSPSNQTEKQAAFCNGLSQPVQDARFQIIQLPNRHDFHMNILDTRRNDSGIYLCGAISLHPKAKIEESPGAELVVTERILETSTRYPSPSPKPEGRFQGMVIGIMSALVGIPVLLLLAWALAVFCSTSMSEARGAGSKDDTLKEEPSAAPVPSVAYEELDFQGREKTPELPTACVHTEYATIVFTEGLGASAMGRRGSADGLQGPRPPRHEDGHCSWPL
Description: flow cytometry on CHO-S cells transiently transfected with mouse PD-1, gMFI (PE).

Assay [10] concerns the target T9, rat PD-1 on transfected CHO-S cells (rat, UniProt D3ZIN8 25-287).
T9 sequence: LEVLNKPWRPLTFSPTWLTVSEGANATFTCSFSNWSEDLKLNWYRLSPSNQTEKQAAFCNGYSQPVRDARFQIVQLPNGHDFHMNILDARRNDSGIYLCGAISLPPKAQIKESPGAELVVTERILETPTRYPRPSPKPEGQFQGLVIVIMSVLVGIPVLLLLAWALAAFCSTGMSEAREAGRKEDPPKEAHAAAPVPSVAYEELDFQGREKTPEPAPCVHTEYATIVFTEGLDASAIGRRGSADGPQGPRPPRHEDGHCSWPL
Put plainly: flow cytometry on CHO-S cells transiently transfected with rat PD-1, gMFI (PE).

The target in assay [11] is cynomolgus monkey PD-1 on transfected CHO-S cells (cynomolgus monkey, UniProt B0LAJ3 25-288). Put plainly: flow cytometry on CHO-S cells transiently transfected with cynomolgus monkey PD-1, gMFI (PE).
Sequence of cynomolgus monkey PD-1 on transfected CHO-S cells (B0LAJ3 entry or part of it limits assumed): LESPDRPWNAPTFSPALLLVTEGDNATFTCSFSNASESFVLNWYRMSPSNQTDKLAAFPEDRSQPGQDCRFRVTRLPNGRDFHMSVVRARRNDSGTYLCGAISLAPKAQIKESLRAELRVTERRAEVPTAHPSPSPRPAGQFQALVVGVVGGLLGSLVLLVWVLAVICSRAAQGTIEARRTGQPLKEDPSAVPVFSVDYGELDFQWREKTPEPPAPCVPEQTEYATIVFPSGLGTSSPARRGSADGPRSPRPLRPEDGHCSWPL
The target of assay [12] is T6, human FcγRIa on the cell surface …. Put plainly: flow cytometry on CHO-S cells transiently expressing human FcγRIa, % PE+ cells.
The target in assay [13] is T10, human PD-1 on the cell surface (transfected CHO-S cells; PD-1 effector reporter Jurkat T cells) (human, UniProt Q15116 25-288).
T10 construct: also called CD279
T10 sequence (Q15116 25-288 limits assumed): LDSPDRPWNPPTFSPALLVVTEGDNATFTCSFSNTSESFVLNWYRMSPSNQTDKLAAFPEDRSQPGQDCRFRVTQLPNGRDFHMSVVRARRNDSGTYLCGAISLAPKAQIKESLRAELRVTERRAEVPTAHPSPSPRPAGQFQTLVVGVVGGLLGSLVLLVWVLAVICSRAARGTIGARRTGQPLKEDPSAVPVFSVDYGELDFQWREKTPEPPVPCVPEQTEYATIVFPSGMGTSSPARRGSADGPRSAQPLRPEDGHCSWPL
Put plainly: flow cytometry on CHO-S cells transiently transfected with human PD-1, gMFI (PE).

For assay [14], the target named is T11, cynomolgus monkey CD27 on the cell surface (T cells, transfected HEK293F cells) (cynomolgus monkey, UniProt P26842 20-260 (human entry)).
T11 construct: also called Cyno CD27
T11 chain: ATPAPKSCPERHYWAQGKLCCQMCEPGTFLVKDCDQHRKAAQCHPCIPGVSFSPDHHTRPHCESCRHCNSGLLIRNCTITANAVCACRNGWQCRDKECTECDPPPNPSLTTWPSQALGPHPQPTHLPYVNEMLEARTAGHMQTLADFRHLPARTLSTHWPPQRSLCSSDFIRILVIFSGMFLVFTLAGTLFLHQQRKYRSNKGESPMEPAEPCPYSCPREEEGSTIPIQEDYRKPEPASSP
Description: flow cytometry on HEK293F cells transfected with cynomolgus monkey CD27, PE-labeled goat anti-human IgG, median MFI PE.

Assay [15] concerns the target T7, human CD27 on the cell surface (T …). Description: flow cytometry on T cells in human PBMC (endogenous CD27), PE-labeled goat anti-human IgG, median MFI PE.
Assay [16] concerns the target human CD27-A59T variant on transfected HEK293F cells (human, UniProt P26842 20-260). Put plainly: flow cytometry on HEK293F cells transfected with human CD27-A59T, PE-labeled goat anti-human IgG, median MFI PE.
Assay [17] deals with T11, cynomolgus monkey CD27 on the cell …. Put plainly: flow cytometry on T cells in cynomolgus monkey PBMC (endogenous CD27), PE-labeled goat anti-human IgG, median MFI PE.
Assay [18] has as its target T7, human CD27 on the cell surface (T …). Description: flow cytometry on HEK293F cells transfected with human CD27, PE-labeled goat anti-human IgG, median MFI PE.
Assay [19] concerns the target T12, IgG1-CD27-A-P329R-E345R-LHalo (HaloTag NanoBret 618 ligand bound to the HaloTag).
T12 construct: Light chain fused to HaloTag; heavy chain as for m63
Put plainly: NanoBRET proximity assay between NanoLuc- and HaloTag-tagged antibodies (5 µg/mL each) bound on cells, corrected BRET (mBU). A general note: In BRET a luciferase serves as donor, and the signal depends on an acceptor being close.

Sequence of recombinant His-tagged human FcγRIa (Sino Biological 10256-H08S-B) (P12314 16-288 limits assumed, stated change not applied): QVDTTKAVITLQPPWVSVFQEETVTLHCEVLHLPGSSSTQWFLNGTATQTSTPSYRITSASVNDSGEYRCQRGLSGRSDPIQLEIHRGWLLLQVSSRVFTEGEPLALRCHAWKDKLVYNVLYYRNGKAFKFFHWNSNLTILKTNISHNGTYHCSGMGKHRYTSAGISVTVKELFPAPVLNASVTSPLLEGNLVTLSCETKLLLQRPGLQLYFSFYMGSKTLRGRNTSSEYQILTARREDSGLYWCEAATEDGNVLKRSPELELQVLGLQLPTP
T12 sequence (heavy, as listed by the source): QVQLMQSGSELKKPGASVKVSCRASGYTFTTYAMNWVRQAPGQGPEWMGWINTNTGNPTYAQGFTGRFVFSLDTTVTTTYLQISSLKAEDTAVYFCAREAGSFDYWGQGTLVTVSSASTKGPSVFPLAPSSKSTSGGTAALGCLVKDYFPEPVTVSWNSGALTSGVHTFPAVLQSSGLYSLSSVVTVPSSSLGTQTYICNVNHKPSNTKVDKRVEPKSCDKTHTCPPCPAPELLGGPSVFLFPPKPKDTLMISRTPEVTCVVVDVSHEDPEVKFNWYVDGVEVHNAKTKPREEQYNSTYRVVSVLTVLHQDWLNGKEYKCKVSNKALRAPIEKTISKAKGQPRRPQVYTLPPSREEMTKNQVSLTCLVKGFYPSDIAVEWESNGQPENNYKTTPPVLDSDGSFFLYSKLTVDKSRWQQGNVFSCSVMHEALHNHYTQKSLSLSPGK

B1: IgG1-b12, anti-HIV gp120 antibody with wild-type IgG1 Fc (antibody)
heavy: not shown
light: EIVLTQSPGTLSLSPGERATFSCRSSHSIRSRRVAWYQHKPGQAPRLVIHGVSNRASGISDRFSGSGSGTDFTLTITRVEPEDFALYYCQVYGASSYTFGQGTKLERKRTVAAPSVFIFPPSDEQLKSGTASVVCLLNNFYPREAKVQWKVDNALQSGNSQESVTEQDSKDSTYSLSSTLTLSKADYEKHKVYACEVTHQGLSSPVTKSFNRGEC
notes: also called WT IgG1-b12; ctrl; copies: 2 + 2
For the molecule B1, in assay [1], the “EC50 (read off the curve)” value is about 60 nM. The binding result in assay [2], in assay [3], in assay [4], in assay [5] and in assay [6] was “binds” throughout.

B2: IgG1-b12-P329R-E345R (antibody)
VH: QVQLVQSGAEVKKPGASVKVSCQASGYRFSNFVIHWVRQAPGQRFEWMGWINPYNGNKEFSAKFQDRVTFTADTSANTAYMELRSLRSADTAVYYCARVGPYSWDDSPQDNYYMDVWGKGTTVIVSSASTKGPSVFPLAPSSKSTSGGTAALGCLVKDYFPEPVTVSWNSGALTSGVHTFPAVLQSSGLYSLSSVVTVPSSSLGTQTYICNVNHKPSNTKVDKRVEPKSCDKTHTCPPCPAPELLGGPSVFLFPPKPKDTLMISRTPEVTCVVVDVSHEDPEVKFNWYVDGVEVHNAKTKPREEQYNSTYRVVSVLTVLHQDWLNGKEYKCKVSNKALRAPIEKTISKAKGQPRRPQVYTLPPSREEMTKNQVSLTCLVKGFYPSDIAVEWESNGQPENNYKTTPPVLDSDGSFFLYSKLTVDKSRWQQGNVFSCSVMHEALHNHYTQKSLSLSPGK
VL: EIVLTQSPGTLSLSPGERATFSCRSSHSIRSRRVAWYQHKPGQAPRLVIHGVSNRASGISDRFSGSGSGTDFTLTITRVEPEDFALYYCQVYGASSYTFGQGTKLERKRTVAAPSVFIFPPSDEQLKSGTASVVCLLNNFYPREAKVQWKVDNALQSGNSQESVTEQDSKDSTYSLSSTLTLSKADYEKHKVYACEVTHQGLSSPVTKSFNRGEC
notes: also called ctrl; IgG1-b12-E345R-P329R
On to B2, for which the results for the binding result in [7] and in assay [8] were “no binding (tested: 30 µg/mL)” and “no binding (tested: 10 µg/ml)”, respectively.

B3: IgG1-ctrl-FERR (b12 antigen-binding domains, IgG1m(f)-L234F-L235E-G236R-K409R) (antibody)
heavy: QVQLVQSGAEVKKPGASVKVSCQASGYRFSNFVIHWVRQAPGQRFEWMGWINPYNGNKEFSAKFQDRVTFTADTSANTAYMELRSLRSADTAVYYCARVGPYSWDDSPQDNYYMDVWGKGTTVIVSSASTKGPSVFPLAPSSKSTSGGTAALGCLVKDYFPEPVTVSWNSGALTSGVHTFPAVLQSSGLYSLSSVVTVPSSSLGTQTYICNVNHKPSNTKVDKRVEPKSCDKTHTCPPCPAPEFERGPSVFLFPPKPKDTLMISRTPEVTCVVVDVSHEDPEVKFNWYVDGVEVHNAKTKPREEQYNSTYRVVSVLTVLHQDWLNGKEYKCKVSNKALPAPIEKTISKAKGQPREPQVYTLPPSREEMTKNQVSLTCLVKGFYPSDIAVEWESNGQPENNYKTTPPVLDSDGSFFLYSRLTVDKSRWQQGNVFSCSVMHEALHNHYTQKSLSLSPG
light: EIVLTQSPGTLSLSPGERATFSCRSSHSIRSRRVAWYQHKPGQAPRLVIHGVSNRASGISDRFSGSGSGTDFTLTITRVEPEDFALYYCQVYGASSYTFGQGTKLERKRTVAAPSVFIFPPSDEQLKSGTASVVCLLNNFYPREAKVQWKVDNALQSGNSQESVTEQDSKDSTYSLSSTLTLSKADYEKHKVYACEVTHQGLSSPVTKSFNRGEC
For the molecule B3, the binding result in [9], in [10], in [11], in assay [12] and in [13] was “no binding (tested: 10 µg/mL)” in each case.

B4: IgG1-CD27-A carrying F405L-L234F-L235E-D265A in the IgG Fc domain (antibody, V domains shown)
VH: QVQLMQSGSELKKPGASVKVSCRASGYTFTTYAMNWVRQAPGQGPEWMGWINTNTGNPTYAQGFTGRFVFSLDTTVTTTYLQISSLKAEDTAVYFCAREAGSFDYWGQGTLVTVSS
VL: QSALTQPASVSGSPGQSITISCTGTSSDVYYYNYVSWYQQHPGRAPKLVIYDVSNRPSGVSNRFSGSKSGNTASLTISGLRAEDEADYYCSSYTVNRVWVFGGGTKLTVL
Turning to B4, the “EC50 (read off the curve)” value in assay [14] was about 0.06 µg/mL; in assay [15], about 0.04 µg/mL; in [16], about 0.2 µg/mL; in assay [17] it was about 0.03 µg/mL; in assay [18] it was about 0.1 µg/mL.

B5: IgG1-CD27-A-P329R-E345R-LNLuc (antibody)
heavy: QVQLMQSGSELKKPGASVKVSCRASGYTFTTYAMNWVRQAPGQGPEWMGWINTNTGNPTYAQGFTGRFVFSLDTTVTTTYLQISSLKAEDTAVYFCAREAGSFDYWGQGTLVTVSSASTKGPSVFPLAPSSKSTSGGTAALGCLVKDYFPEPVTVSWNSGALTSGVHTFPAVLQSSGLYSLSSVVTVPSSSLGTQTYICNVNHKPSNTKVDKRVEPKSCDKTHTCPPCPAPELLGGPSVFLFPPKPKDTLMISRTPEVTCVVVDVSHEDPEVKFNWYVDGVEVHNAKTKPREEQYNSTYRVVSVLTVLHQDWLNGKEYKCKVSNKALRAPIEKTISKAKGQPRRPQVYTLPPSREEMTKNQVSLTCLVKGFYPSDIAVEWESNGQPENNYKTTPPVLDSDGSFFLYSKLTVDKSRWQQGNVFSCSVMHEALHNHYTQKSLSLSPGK
light: QSALTQPASVSGSPGQSITISCTGTSSDVYYYNYVSWYQQHPGRAPKLVIYDVSNRPSGVSNRFSGSKSGNTASLTISGLRAEDEADYYCSSYTVNRVWVFGGGTKLTVLGQPKAAPSVTLFPPSSEELQANKATLVCLISDFYPGAVTVAWKADSSPVKAGVETTTPSKQSNNKYAASSYLSLTPEQWKSHRSYSCQVTHEGSTVEKTVAPTECSSLGSSGVFTLEDFVGDWRQTAGYNLDQVLEQGGVSSLFQNLGVSVTPIQRIVLSGENGLKIDIHVIIPYEGLSGDQMGQIEKIFKVVYPVDDHHFKVILHYGTLVIDGVTPNMIDYFGRPYEGIAVFDGKKITVTGTLWNGNKIIDERLINPDGSLLFRVTINGVTGWRLCERILA
On to B5, for which the binding result in assay [19] is listed as “binds”.
